# Reference: the domain aggregation screens of Martell et al. (2025)
# Test: soluble fraction after stress (log2 fold change); higher = more stays soluble; pooled small domains, quantitative proteomics
# Conditions: stress: 50 degC
# Procedure, shortened: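 After stress at 50°C, the amount of each protein still soluble was measured. This was done on pooled custom libraries of small protein domains, using high-throughput quantitative proteomics. The figure given is a base-two log fold change and stands for aggregation propensity, with higher values meaning more protein stays in solution.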
row,Sequence,soluble fraction (log2)
1,HMDEKSGWLHLAPHEGALRAALYAEHAVQEERTAPDGSQWLRLVLREKHYHQIQSKYNRRLTLHTQPDPS,0.113
2,HMHTPSGALLSAIEKEWGSFDNFKKEFTTAATSLFGSGWVWLAKDKKGKLYILSENNAGNPITKGYTPILG,-0.262
3,HMRIAGIDIPDNKRGEVALTYIFGIGRSSSKKILKSAGIDSDKQIGKWTDDESNLVRKLIRDEYTIEGDL,-0.412
4,HMESPLNPTDVRRAAMDLLARREHGVEELRLKLKRRFGREEDFETIATEQLQRLVDEDLLSDTRF,-0.165
5,HMKDVVAPMSGRVVRLMVAAGDEVVKRQALVVVEAMKMENVLTAPKEGRIKKVPVREGMTVEVGQTLVSFE,-0.221
6,HMYGSLGEYELAAVQWIYGKGKITTRELSSLIGKGLTLSSKTLRGLAAKGILEWHGNSKNDPSQFYSLP,-2.39
7,HMYRPQQEFTMRDLFQNNLNGSESASVRRDALGAELGIGYGNAKRFLERLNHYGVSREEFTAALEKLESE,-0.224
8,HMVGPAHIGLAVAKDQLPHWERHLTANGVEIEGRMRWDHGGESIYFRDPDAHLLELVTPGIWAN,-0.0453
9,HMDVFTAKTASHIQELREKLGQQAVFGRSDVQNALGLKATRSSALLREMAEHGIIEPVTGYGKGRYHFRS,0.225
10,HMPLITDIKIQVKNTEKVSLFVDGKYSFSLTISQLAEHKILKTNQEISAKQVAEFKKLSNLTNLYIRIVG,-0.149
11,HMSHQIIIVAVELDPSTERIVYYLSKNGISINVLFFKVFQHGDEQFLSRVWLIDPSETQTNAALA,-0.466
12,HMLAKRYLVYGSGSLNSAYPDTKNIAYGIDSGKGFFLVGILTENEASKLKLKGYYVIEDFPLDFH,-1.43
13,HMQVEYTRGELLQDLKEENVLYATITPSRETPTGEVDFVFKDKSIKTLYVTDVSEIEGLLMDYGIDPEVKK,-0.0511
14,HMIFTPNGDRVNDVFEIEMGVKLEFQIIILNQQNQTVFKSADPDFKWDGTMLNGEPAPSGTYLYYFSAKD,0.0847
15,HMEAMITEVKRINYGLISDISKSLDPFKSEGGHIIVDKRTNTFILTDLRANIEKMLWSIEIMD,-0.111
16,HMRIQTVDYNTFISMVEDGKVDAAEIQQQENRILFSDQDQKVYKTAMVPDDDLTQRLLDAGVSTNG,0.274
17,HMIYWGTMVDKIYEVLSLAGKPLSLMEIYQQVKVFFPNSTKSSIEASMRLDARHRFKYDVEGHVYSLVD,-1.3
18,HMEDLDKIISAYLDENPQIVSDYGKGNKKAVNSAIGFVMKSTGGKYSSSDIVDAVRSMIVSISV,-0.482
19,HMKRTMVEAAMVAKLFNLTVRRIQQLTQDGVLTTELVDKKRRYDLLLTVQKYIAYLQEKVAK,-3.24
20,HMYRPLYQQVYDFLVKQIAAGEWGPGESLPSEQALAGRLNVSQGTVRKALDALAADSLIDRRQGKGTYVAE,-0.0221
21,HMQMSWDAVKARLQDIVNNEDKTKPFNDEMLASKLKEQGIEIARRTVVKYRQQLGIPAARLRKK,-0.468
22,HMAALTADEAKQIALKHAGVAESDVQRLKVEQDRDDGRLLYEVEWDVGRTEYSYEIDANTGDILNYEKDV,0.254
23,HMRPEVTEHLKTADAILHGGDINRQSIVDELRQYAPLYIVRGNNDKDWAEAIPHDLTVTLGGVTFFMVHNR,-0.0555
24,HMHTGEVVNGKVIDVKEDQIILNVGFKSDGIITRSEYSNDNSLDLRTVVNVGDDMEAKVLKINDGEGQVLL,-0.185
25,HMVAVSQEEATKMALERVSGASAQDIRIQLEFDDGIQKYEGDIIYNGREYEFEIDANTGTFLEWSEERA,-0.489

row,Sequence,soluble fraction (log2)
1,HMEKLIRIKRLIKQLNEYRDSYYNEARPVVSDAAYDKLFDELSELEKETGVVYANSPTQTVG,-0.149
2,HMENVVESIYNKMVESITNGQWAAGSKIPTENELAKTYQVSRSSVRQAISRLKALGLLESRQGSGTVIKK,0.272
3,HMAMTNEEREALISEIKQTVNNSIDLKKDISDTEIKEAITQAVFERSEKSYLSIAEKQDIITAVFNSMR,0.0202
4,HMTKTKADKIDYAIGDSGTEPPTEDKWTDLAHLPLIKAGQFQWTRRTEYYSDGSTAVSYNIAKSE,0.0286
5,HMSIGKEATPDDIVPNIRVYHATFGYGNVIKTDGVSHDKKAVVNFDSVGEKTLLLKFAKLILPY,0.138
6,HMRPFAMNLLEKHKADIEVWLKHPNMTNTQIKRLLEELGTSVSVSSIDRFISTSFPKLPKHT,-0.17
7,HMNNLSEELNVTFPRTRDQLLNILHYVQHKYGYISKVSMQEIGNHIKMPVSEIYGTVTSYSEFKI,-1.54
8,HMQMRKENKILVTDIGEIDEVKVIFDDDNKPYLYSYNGEDEFYRPDETYKFFDNKEQAEEYVREN,0.0625
9,HMNYIEWKNTFKKYLYLLPIKEEKETLAYFDEQYNKLNPKDLDNVENIFSDPIDKAAFVVAFYLEMEDEIK,-0.612
10,HMLLQENRKLHSKLEELQLISRAKAVLIEYLKLTEPQAHRYIEKQAMDLGLTRPQVALNILKTYE,-0.202
11,HMIGERIKRARAAAGLSMQALGKQVGISANMVKKYEHDQSMPSSGVLLKLATALSVRTEYFFRPA,-1.28
12,HMGQERAVPDVKGQSFDMAQGNISRAGLKAVVTDSVYDSYARPGTVVEQSPIPLAKIKRGGTVYLTLVA,-0.105
13,HMSSLTQREYEIAELVADGLSNKAIAAELSISHTTAARHVANIMNKLGFNSRSQIAAWVADRAQG,0.11
14,HMPFESEMKHWIHLFAHELNLKVSDKYTQKIIEIFGNNFSEIFNEMSKSSLVSSNEKDLLNALEKSGNIH,-0.678
15,HMQFLKPQDVLFLLKLVVLKGPASIFPAVPESLGLSKAEVHNSAKRVRGARLLPHDSWNPLRKNLLEFL,-0.148
16,HMQYQIITENGKQYYLYTVQKSEGFYSIGKRFEITNDEIIKANPEAALGLKLGQVLKIPVYK,-0.331
17,HMSVLQGLIESFKAGDRNLYEVAERLNVTEPFLAEALKDYRARFPKGVQVDNFWISFRPYLTIAEV,-1.41
18,HMHIMINPDQLSPEQIQSIRTWAEEGLDLNAIQKRLHEDLNIKLTFMDTRFLLQDLDIRIRQPEPEPEAEQ,-0.00841
19,HMNMNDIKFGKYLKRVRKKYNFSKEYVANILKVKESLVSDWESGRLTLNDEYMEKLSLFYGVNLYKK,-0.863
20,HMVKNLRKLREELGLTQQRLAELTGISKSRIYSYESLDREPDIAGLITLADFFSVSIDYLVGK,-1.78
21,HMYKDVVVPNTVGDSEEKAYQTLSALGLVVNITYDEDASKSDRVVTSQNPTNKTIKEGESVNIVVNKQP,0.0711
22,HMENLSFNINSEEEGQRIDKYLSVMIEGKSRSFVQGLIEEKKVKANSKVIKSNYKLKKGDFIEVEVPEPV,0.27
23,HMETPLSAADFKIVFGEEYEIGTDANGLPKMGSRINRQLQNRFLTWASVNKRKATMSAYQDWVASDPAAQ,-0.336
24,HMEPDEIVLDHRKRIENSDAIVLIAPIWNFRMPAILEGWIDKVLAPPWAFKFKKLFGNYGYPVGNLKG,0.103
25,HMHGEAVVVPNVKGLPMRQAENEIYKQSLKAVAIDSSYVKGMPPGAILEQNPAGGSKVKKGRTVYLTINMD,-0.0918

row,Sequence,soluble fraction (log2)
1,HMIESFQNGLVEHDQFTRPNPWVTPNFSKIEVPSILLSGKHADIDLWKHQNSIENTKKNRPDLFKNYLKKN,0.211
2,HMNVSVSITKELQVYINDERISSSALESTLKSKLAGIENPTIILRAEEGVPIEKAVNVMDIANRNRYKIVL,-0.522
3,HMTFNEPSPKEIMDYSLSRGYKVDADAFIDFYRGKAKAYGKEGLWLDGRGRLVKDWRAKLRVVWFKDENKL,-1.22
4,HMDNEVTIAVQVNGKLRDKLIVALDTPNEKIEQLALALPKVIQNTSGLTVRKVIVIPNRLVNIVA,-0.171
5,HMENLVPVVVATTNIEPRTQITDAMVKVEQIPALGRNESMLEDPALVVGGYATGKIYAGQSFIQPMVSK,0.179
6,HMGAGKVVDGVTYDFVFDVDVADGQPPLRLPYNRGEDVYQAAERFILRNELPATYREQIVNFIVQNTPG,-0.131
7,HMRPQELSSLNTNQMRLYNSLPEAFITAEAKDIADKLRYSERSLFRFLNESNLFTKTEHGSYAKKA,0.133
8,HMTITDDETHKVLEEGASRMSEGLTFRDLVDLDRLHLTARGVIQKVLNENRIDADVDTIANMAQKLVARVS,-0.0539
9,HMQEKLELIIPVSSIGKRADVAIQDLLSSYSRAKIQEWIKSGFILLESKKISPKDIFMGGERVFIDIQQDE,-1.41
10,HMIKRETNDNPVDPASLSLGDRVKILTLNQNGEIISLPDEKGLLQVQVGIMKIGVNVSDIMLI,-0.0513
11,HMSSKTKVEDLGLSTRTLNALIGGSIKTAGGLTRKSESDLLSLDGLGEKGITEIKEALENIGLSLK,0.215
12,HMEELLVAVKADGSIWADGRPITPDGLASFIDSKPADAVLNLAVDKKAPFAAFVKVVDVAKEKKSGRFVIR,0.0577
13,HMVDSTDLIPLLIKVSREKQGNKKLNWGEWLKIPENIYLKQINENIARKVFEDTNDLIDEAVNYINRKRRN,-0.602
14,HMNYSKQRETILKVLRSTRSHPSVNWIYENVKKEIPDVGLATVYRNLKQLEAAGEIMRIQGDFPEERWDGF,-0.911
15,HMQVSDEGAIQLLVQKAIEENPQAIEAFRGGKTSALGPVVGWVMKQSKGAANPTMVKTLLEKAI,0.293
16,HMLTAPMPGIVRQVNVDTGQKVRKGQPLMVLEAMKMEHQIIAPQAGKIEAIHYNEGDRVEMGSVLISIF,-0.0961
17,HMNIDVAAEKQQLGPNADQIVKGTVTWMQGLVAKGIWSETDFEEGKIFTATADGINAINKIRRYYGEQT,-0.0611
18,HMSSDEAEYKLLLGQEGVAKSPLRPSGVVDFSGRRLDVQTLGDFIESGETVVVKQVNGHRVLVERK,0.158
19,HMLSDEEKMAALNEQARQRGFTISPGVLPYLITHYQRDMHSLSMILDALDRYSLQTKRTITLPLLHDLLQQ,-1.06
20,HMVVVPPPATPKPGDVTGDNKINGYDLSILLSNWKRPGATLAQGDLNKDGVVNGLDLSIMLLNWG,-0.0393
21,HMSYPEIFQSLTEREQKIADMIAEHLSNKEIAEKMFLSEGTIKQYINQIYSKLQITGDIRNKRKQLIELFH,-1.16
22,HMTEKIRLTVDEAGKNQRVDKYISTLLTQFSRSSIKTWIETGNILLDNTRTKPRTLLSPGQVIDIQPRFED,-0.643
23,HMPSALGDKIRAARKALKLSLEDLAEKVSSSKSYMWELENRDEPNPGADLLMRIAAALNVTTEHLLGP,-0.0736
24,HMNVAETITLGKRLFNHALTILGKKQRNISRKQLKNFLNDLGLKDSKDLYESIGTGDKNPILMAQLLLG,-0.509
25,HMDNTFEEVKEKLLDLLKERPLTPAEVSKRMEEDKNILAQVIQYLLEEEIIKTEDGMLSKVIG,-0.0569
